Assay results from patent US6528620B1, “Sid-polyamide fusions: a potent method of regulating gene expression” (University of Utah Research Foundation, priority 1999, dated 2003).
Substitutions are numbered along the chain they refer to. In names and notes the source's numbering stands. Where no end group is shown, it is not given here.

B1: VP16PAH2 (amino acids 251-404 of mSin3A encoding the PAH2 domain fused to the VP16 activation domain) (other)
chain: SKPSQLQAHTPASQQTPPLPPYASPRSPPVQPHTPVTISLGTAPSLQNNQPVEFNHAINYVNKIKNRFQGQPDIYKAFLEILHTYQKEQRNAKEAGGNYTPALTEQEVYAQVARLFKNQEDLLSEFGQFLPDANSSVLLSKTTAEKVDSVRNDH
notes: range 251-404; Prey of the directed two-hybrid assay in S. cerevisiae L40
B2: Mad1(L12P/A16P)His (other, human, UniProt Q05195 1-221, looked up)
chain: MAAAVRMNIQMPLEAPDYLERREREAEHGYASMLPYNNKDRDALKRRNKSKKNNSSSRSTHNEMEKNRRAHLRLCLEKLKGLVPLGPESSRHTTLSLLTKAKLHIKKLEDCDRKAVHQIDQLQREQRHLKRQLEKLGIERIRMDSIGSTVSSERSDSDREEIDVDVESTDYLTGDLDWSSSSVSDSDERGSMQSLGSDEGYSSTSIKRIKLQDSHKACLGL
modifications: 35S-methionine labelled (in vitro translated)
notes: Mutant Mad1 probe in the far Western blot; not shown: polyhistidine tag fused to the carboxyl terminus
B3: Mad1(L12P/A16P)His: polyhistidine-tagged mutant Mad1 protein with L12P/A16P point mutations in the SID (protein)
chain: B2 chain
modifications: left off: small tags and cut ends
notes: polyhistidine-tagged mutant Mad1 protein with L12P/A16P point mutations in the SID
B4: Mad1His: in vitro translated 35S-labeled Mad1 with a polyhistidine tag fused to its carboxyl terminus (protein)
chain: B2 chain with P12L, P16A
modifications: left off: small tags and cut ends
notes: in vitro translated 35S-labeled Mad1 with a polyhistidine tag fused to its carboxyl terminus
B5: LexA fused to SID 1-27 (other)
chain: MKALTARQQEVFDLIRDHISQTGMPPTRAEIAQRLGFRSPNAAEEHLKALARKGVIEIVSGASRGIRLLQEEEEGLPLVGRVAAGEPLLAQQHIEGHYQVDPSLFKPNADFLLRVSGMSMKDIGIMDGDLLAVHKTQDVRNGQVVVARIDDEVTVKRLKKQGNKVELLPENSEFKPIVVDLRQQSFTIEGLAVGVIRNGDWLMAAAVRMNIQMLLEAADYLERREREAE
notes: Carboxyl-terminal deletion of 30 amino acids from SID 1-57
B6: fusion between the first 35 amino acids of Mad1 and the GALDBD: first 35 amino acids of Mad1 fused to the GAL4 DNA binding domain (protein)
chain: MKLLSSIEQACDICRLKKLKCSKEKPKCAKCLKNNWECRYSPKTKRSPLTRAHLTEVESRLERLEQLFLLIFPREDLDMILKMDSLQDIKALLTGLFVQDNVNKDAVTDRLASVETDMPLTLRQHRISATSSSEESSNKGQRQLTVSMAAAVRMNIQMLLEAADYLERREREAEHGYASMLP
B7: GALSID(8-20) WT: amino acids 8-20 from Mad1 fused to the GAL4 DNA binding domain (protein)
chain: MKLLSSIEQACDICRLKKLKCSKEKPKCAKCLKNNWECRYSPKTKRSPLTRAHLTEVESRLERLEQLFLLIFPREDLDMILKMDSLQDIKALLTGLFVQDNVNKDAVTDRLASVETDMPLTLRQHRISATSSSEESSNKGQRQLTVSNIQMLLEAADYLE

How the values were obtained:
[1] = molecular target: mSin3-HDAC corepressor complex; assay: cell-based or functional assay
[2] = test system: GAL4 DNA binding domain-responsive reporter; assay: Transcription assay, Gal4-14D luciferase reporter in 293 cells; assay type: cell-based; details: relative to the GALDBD alone level, 24 h after transfection
Experimental: Transcription Assays—293 cells were grown in Dulbecco's modified Eagle's medium with 10% defined calf serum (HyClone). 2×10^5 cells were planted on 60-mm dishes and transfected with 200 ng of the Gal4-14D luciferase reporter (Ayer et al., Mol. Cell Biol. 16:5772-5781 (1996)) and 1 μg of the indicated expression vector. Cells harvested 24 h after transfection and luciferase and β-galactosidase activity measured according to the manufacturers' protocols (Promega and Tropix). Each transfection was performed at least twice in triplicate. Error shown is the standard of the mean.
To test whether this minimal thirteen residue interaction domain is sufficient to target a functional mSin3:HDAC corepressor complex to DNA, we fused amino acids 8-20 from Mad1 to the DNA binding domain of the yeast transcriptional activator GAL4 (GALDBD). The transcriptional activity of GALSID(8-20) WT was tested on a reporter containing four GAL4 binding sites cloned upstream of a minimal promoter (FIG. 6A). Consistent with our previous findings (Ayer et al., Mol. Cell. Biol. 16:5772-5781 (1996)), the GALDBD alone activates this reporter approximately 3-fold, and a fusion between the first 35 amino acids of Mad1 and the GALDBD repressed this level of reporter activity approximately 7-fold. […] Amino acids 10, 14, and 17 of the SID can be mutated to alanine without adversely affecting the interaction with PAH2 (FIG. 3). However, it is possible that these residues constitute a surface that interacts with other components of the mSin3-HDAC complex and/or components of the general transcriptional machinery. To test whether mutation of these residues may impair the ability of the SID to recruit a functional corepressor complex, we constructed a minimal SID containing the mutations Q10A, E14A, and D17A in the context of a GALDBD fusion (FIG. 6A).

[3] = molecular target: T1, LexA fused to amino acids 8-20 of wildtype Mad1 (bacterial; human, UniProt P0A7C2 1-202); assay: directed yeast two-hybrid assay (LexA-SID with VP16PAH2, beta-galactosidase)
T1 construct: also called SID 8-20; minimal SID
T1 sequence: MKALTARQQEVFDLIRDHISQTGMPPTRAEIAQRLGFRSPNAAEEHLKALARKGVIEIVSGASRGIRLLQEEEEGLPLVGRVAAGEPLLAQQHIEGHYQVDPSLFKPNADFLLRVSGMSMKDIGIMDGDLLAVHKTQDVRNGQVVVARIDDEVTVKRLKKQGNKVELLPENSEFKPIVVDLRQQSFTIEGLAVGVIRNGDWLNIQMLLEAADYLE

[4] = molecular target: T2, LexA fused to amino acids 1-57 of Mad1 (bacterial; human, UniProt P0A7C2 1-202; Q05195 1-57); assay: as above
T2 construct: also called SID 1-57
T2 sequence: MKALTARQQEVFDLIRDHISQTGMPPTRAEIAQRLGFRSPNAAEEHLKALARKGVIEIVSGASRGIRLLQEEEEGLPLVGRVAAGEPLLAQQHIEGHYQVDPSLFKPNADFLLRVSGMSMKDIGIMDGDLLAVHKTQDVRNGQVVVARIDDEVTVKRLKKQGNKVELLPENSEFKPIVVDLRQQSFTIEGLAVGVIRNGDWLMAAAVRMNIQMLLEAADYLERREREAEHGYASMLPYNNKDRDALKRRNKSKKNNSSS

[5] = molecular target: T3, GST-PAH2, a GST fusion to the PAH2 domain of mSIN3A (UniProt P08515 1-218 = GST; Q60520 300-383); assay: far Western blot, probe purified under native conditions
T3 construct: Expressed in bacteria, resolved by SDS-PAGE and immobilised on PVDF membrane
Experimental: Recombinant GST and GST-PAH2 were expressed in bacteria and purified on glutathione-Sepharose 4B (Amersham Pharmacia Biotech). […] The blots were blocked in far Western Buffer (PBS containing 0.1% Nonidet P-40, 1 mM EDTA, and 1 mM dithiothreitol) containing 5% nonfat dry milk for 1 h at 4° C. Purified probes were added to blots in 5 ml of far Western buffer containing 1% nonfat dry milk and incubated together at 4° C. overnight with rocking. Following washing with far Western buffer, the blots were air-dried and exposed 48 h for autoradiography.

[6] = molecular target: T4, PAH2 domain of mSin3A (GST-PAH2) (Mus musculus, UniProt Q60520); assay: Far Western blot, 35S-labeled Mad1 probes on immobilized GST-PAH2; assay type: binding, mammalian
T4 construct: GST-PAH2, a GST fusion to the PAH2 domain of mSIN3A; made in house; host or cells: bacteria
T4 sequence (Q60520 300-383 limits assumed): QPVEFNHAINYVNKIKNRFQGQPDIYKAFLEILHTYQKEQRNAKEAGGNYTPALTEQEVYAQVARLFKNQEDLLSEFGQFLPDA
Experimental: (§1) Far Western Blotting—Mad1His and Mad1(L12P/A16P)His (Ayer et al., Cell 80:767-776 (1995)), which have a polyhistidine tag fused to their carboxyl termini, were translated in vitro in 50 μl reactions using the TNT coupled reticulocyte lysate system (Promega) and ^35[S]methionine (NEN Life Science Products) and were purified under native or denaturing conditions. Ni^2+-NTA agarose (Qiagen) was blocked with rabbit reticuocyte lysate (diluted 1:3 in PBS) for 30 min at 4° C. and then incubated with the in vitro synthesized Mad1His and Mad1(L12P/A16P)His for 30 min at 4° C. in PBS native or 6 M guanidine hydrochloride, 0.1 M NaH2PO4, and 0.01 M Tris, pH 8.0 (denaturating conditions) followed by extensive washing with the same buffers. The bound proteins were eluted in PBS containing 0.5 M imidazole and then dialyzed overnight against PBS to remove the imidazole and allow for renaturation. Recombinant GST and GST-PAH2 were expressed in bacteria and purified on glutathione-Sepharose 4B (Amersham Pharmacia Biotech). The blots were prepared by resolving 1 μg of GST-PAH2 on 15% SDS-PAGE, followed by transfer to PVDF membrane. The blots were blocked in far Western Buffer (PBS containing 0.1% Nonidet P-40, 1 mM EDTA, and 1 mM dithiothreitol) containing 5% nonfat dry milk for 1 h at 4° C. Purified probes were added to blots in 5 ml of far Western buffer containing 1% nonfat dry milk and incubated together at 4° C. overnight with rocking. Following washing with far Western buffer, the blots were air-dried and exposed 48 h for autoradiography.
To determine whether the interaction between Mad1 and mSin3A is direct, we used far Western blot assays. In these experiments GST-PAH2, a GST fusion to the PAH2 domain of mSIN3A, and GST alone were resolved by SDS-PAGE followed by transfer to a PVDF membrane. […] Equal efficiency of transcription and translation of these proteins was confirmed by SDS-PAGE followed by autoradiography to detect the proteins (data not shown). These protein probes were purified on Ni^2+-NTA agarose under native or denaturing conditions. […]

GST = molecular target: T5, GST (Schistosoma japonicum, UniProt P08515); assay: Far Western blot, 35S-labeled Mad1 probes on immobilized GST alone; assay type: binding; details: probe purified under denaturing conditions
T5 construct: made in house; host or cells: bacteria
T5 sequence (P08515 whole entry): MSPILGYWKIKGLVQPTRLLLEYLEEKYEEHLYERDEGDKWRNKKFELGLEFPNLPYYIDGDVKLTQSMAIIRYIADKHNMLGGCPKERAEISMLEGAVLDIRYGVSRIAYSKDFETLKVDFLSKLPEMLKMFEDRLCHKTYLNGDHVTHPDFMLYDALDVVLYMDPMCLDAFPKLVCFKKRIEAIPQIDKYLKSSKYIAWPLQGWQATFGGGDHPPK
Experimental: as §1, with “Purified probes were added to blots in 5 ml of far Western buffer containing 1% nonfat dry milk and incubated together at 4° C. overnight with rocking. Following washing with far Western buffer, the blots were air-dried and exposed 48 h for autoradiography.” left out

[7] = molecular target: B1; assay: directed yeast two-hybrid assay (LexA-SID with VP16PAH2, beta-galactosidase)
[8] = probe purified under denaturing conditions and renatured

## fusion between the first 35 amino acids of Mad1 and the GALDBD (from UniProt P04386 1-147; Q05195 1-35)
[1]
  repression of a GAL4 DNA binding domain-responsive luciferase reporter in 293 cells: 7 fold

## GALSID Q10A, E14A, D17A: minimal SID containing the mutations Q10A, E14A, and D17A in the context of a GALDBD fusion (NIAMLLAAAAYLE; also: GAL4 DNA binding domain fusion; UniProt Q05195 8-20, looked up, variant Q10A E14A D17A)
[2]
  repression of reporter activity: repressed transcription to the same extent as the wild-type minimal SID

## B1
[3]
  binding result: binds
[4]
  binding result: binds

## B2
[5]
  binding result: no binding

## B3
[6]; [8]
  interaction with GST-PAH2: did not interact
GST
  interaction with GST alone: did not interact

## B4
[6]; [8]
  interaction with GST-PAH2: also interacted with GST-PAH2
[6]; probe purified under native conditions
  interaction with GST-PAH2: able to interact
GST
  interaction with GST alone: not with GST alone

## B5
[7]
  fold better binding than SID 1-57 (relative beta-galactosidase activity): ~2 fold

## B6
[2]
  repression of reporter activity: approximately 7 fold

## B7
[2]
  repression of reporter activity: repressed transcription to approximately the same level
[2]; listed as minimal thirteen amino acid SID
  repression of reporter activity: functions similarly to the longer 35-amino acid SID
